B1: decorin proteoglycan (core and side chains), recombinant, vaccinia system (other, UniProt P07585 31-359, looked up)
chain: DEASGIGPEVPDDRDFEPSLGPVCPFRCQCHLRVVQCSDLGLDKVPKDLPPDTTLLDLQNNKITEIKDGDFKNLKNLHALILVNNKISKVSPGAFTPLVKLERLYLSKNQLKELPEKMPKTLQELRAHENEITKVRKVTFNGLNQMIVIELGTNPLKSSGIENGAFQGMKKLSYIRIADTNITSIPQGLPPSLTELHLDGNKISRVDAASLKGLNNLAKLGLSFNSISAVDNGSLANTPHLRELHLDNNKLTRVPGGLAEHKYIQVVYLHNNNISVVGSSDFCPPGHNTKKASYSGVSLFSNPVQYWEIQPSTFRCVYVRSAIQLGNYK
modifications: glycosaminoglycan side chain
notes: also called DEC-PG; DECPG
B2: decorin core (no side chains), recombinant, vaccinia system (other, UniProt P07585 31-359, looked up)
chain: DEASGIGPEVPDDRDFEPSLGPVCPFRCQCHLRVVQCSDLGLDKVPKDLPPDTTLLDLQNNKITEIKDGDFKNLKNLHALILVNNKISKVSPGAFTPLVKLERLYLSKNQLKELPEKMPKTLQELRAHENEITKVRKVTFNGLNQMIVIELGTNPLKSSGIENGAFQGMKKLSYIRIADTNITSIPQGLPPSLTELHLDGNKISRVDAASLKGLNNLAKLGLSFNSISAVDNGSLANTPHLRELHLDNNKLTRVPGGLAEHKYIQVVYLHNNNISVVGSSDFCPPGHNTKKASYSGVSLFSNPVQYWEIQPSTFRCVYVRSAIQLGNYK

Experiments:
Test in all cases: overlay assay with 35S in vitro translated sarcoglycan
[1] = biological target: T1, α-sarcoglycan, recombinant human, 35S-labelled, in vitro transcribed and translated (human, UniProt Q16586 1-387, limits assumed, 35S label; not glycosylated)
T1 construct: also called alpha-sarcoglycan
T1 sequence (looked up): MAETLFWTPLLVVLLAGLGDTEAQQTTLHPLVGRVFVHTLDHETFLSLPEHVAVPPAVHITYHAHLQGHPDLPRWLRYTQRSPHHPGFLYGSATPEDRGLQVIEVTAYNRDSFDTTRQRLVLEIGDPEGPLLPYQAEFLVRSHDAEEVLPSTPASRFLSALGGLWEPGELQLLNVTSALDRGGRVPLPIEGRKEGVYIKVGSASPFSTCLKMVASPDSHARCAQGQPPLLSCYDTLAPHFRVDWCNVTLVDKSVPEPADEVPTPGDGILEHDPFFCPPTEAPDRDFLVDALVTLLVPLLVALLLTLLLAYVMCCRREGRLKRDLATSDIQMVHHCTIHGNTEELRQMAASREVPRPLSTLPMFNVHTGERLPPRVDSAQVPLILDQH

[2] = biological target: B1
[3] = biological target: B2

B1: no binding [1].

B2: no binding [1].

B3: γ-sarcoglycan, recombinant human, 35S-labelled, in vitro transcribed and translated (other, UniProt Q13326 1-291, looked up)
chain: MVREQYTTATEGICIERPENQYVYKIGIYGWRKRCLYLFVLLLLIILVVNLALTIWILKVMWFSPAGMGHLCVTKDGLRLEGESEFLFPLYAKEIHSRVDSSLLLQSTQNVTVNARNSEGEVTGRLKVGPKMVEVQNQQFQINSNDGKPLFTVDEKEVVVGTDKLRVTGPEGALFEHSVETPLVRADPFQDLRLESPTRSLSMDAPRGVHIQAHAGKIEALSQMDILFHSSDGMLVLDAETVCLPKLVQGTWGPSGSSQSLYEICVCPDGKLYLSVAGVSTTCQEHNHICL
modifications: 35S label; not glycosylated
notes: also called gamma-sarcoglycan
B3: no binding [2]; no binding [3].

— patent publication EP1230262B1 (BROWN UNIVERSITY RESEARCH FOUNDATION, dated 2017)
